Assay [1] concerns the target T1, unphosphorylated light-activated bovine rhodopsin (bovine, UniProt P02699 1-348, light-activated).
T1 construct: rhodopsin, bovine, wild type, in native disk membranes; Native protein; source: purified bovine rhodopsin in native disk membranes, unphosphorylated
Put plainly: radioligand binding; direct binding assay: 1 nM [14C]leucine-labelled arrestin-1 (50 fmol) from cell-free translation incubated with 0.3 μg of P-Rh* or Rh* (7.8 pmol) in 50 mM Tris-HCl pH 7.4, 100 mM potassium acetate, 1 mM EDTA, 1 mM DTT, 5 min at 37 °C under room light; bound arrestin separated with rhodopsin-containing membranes by gel filtration on Sepharose CL-2B at 4 °C, scintillation counting; binding in …. The note with it: one partner purified.

Assay [2] concerns the target T2, phosphorylated light-activated bovine rhodopsin (bovine, UniProt P02699 1-348, phosphorylated by endogenous rhodopsin kinase (GRK1), on average 2.6 phosphates per rhodopsin (sites not determined; the C-terminus has seven phosphorylatable serines and threonines); regenerated …).
T2 construct: rhodopsin, bovine, wild type, in native disk membranes; Native protein; also called P-Rh*
Described as above. The note with it: one partner purified.

T1 sequence (P02699 whole entry): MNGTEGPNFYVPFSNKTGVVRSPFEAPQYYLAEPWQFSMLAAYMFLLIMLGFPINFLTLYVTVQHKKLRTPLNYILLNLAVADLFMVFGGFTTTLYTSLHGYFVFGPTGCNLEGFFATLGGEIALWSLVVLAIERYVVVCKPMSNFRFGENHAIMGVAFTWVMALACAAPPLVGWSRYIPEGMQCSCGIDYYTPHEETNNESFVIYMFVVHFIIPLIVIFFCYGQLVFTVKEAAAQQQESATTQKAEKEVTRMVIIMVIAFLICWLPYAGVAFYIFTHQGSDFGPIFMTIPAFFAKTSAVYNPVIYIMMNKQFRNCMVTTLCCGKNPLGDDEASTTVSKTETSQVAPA
T2 sequence (P02699 whole entry): as above

B1: bovine arrestin-1 with deletion of Gly292 (natural protein)
chain: MKANKPAPNHVIFKKISRDKSVTIYLGKRDYIDHVERVEPVDGVVLVDPELVKGKRVYVSLTCAFRYGQEDIDVMGLSFRRDLYFSQVQVFPPVGASGATTRLQESLIKKLGANTYPFLLTFPDYLPCSVMLQPAPQDVGKSCGVDFEIKAFATHSTDVEEDKIPKKSSVRLLIRKVQHAPRDMGPQPRAEASWQFFMSDKPLRLAVSLSKEIYYHGEPIPVTVAVTNSTEKTVKKIKVLVEQVTNVVLYSSDYYIKTVAAEEAQEKVPPNSSLTKTLTLVPLLANNRERRIALDGKIKHEDTNLASSTIIKEGIDKTVMGILVSYQIKVKLTVSGLLGELTSSEVATEVPFRLMHPQPEDPDTAKESFQDENFVFEEFARQNLKDAGEYKEEKTDQEAAMDE
modifications: [14C]leucine incorporated
notes: arrestin-1, bovine; bovine residue numbers; source: cell-free translation, radiolabelled; translation mix after centrifugation
Take B1: the “increase of binding over WT” value was found to be 156% in assay [1] and 38% in assay [2].

(Values after PMC12733242, “The Functional Role of Gate Loop Residues in Arrestin Binding to GPCRs” (International Journal of Molecular Sciences, 2025).)
